Where two headings read alike, the source gives them in different places. Positions of bridges follow the written chain, without caps; N, C: chain ends. No end group written: not given here.
Tests used:
[1] = target: T1, human GLP-1 receptor (human, UniProt P43220 24-463); assay: 125I-GLP-1 displacement, membranes of CHOK1 cells expressing human GLP-1 receptor
[2] = target: T1, human GLP-1 receptor; assay: cell-based or functional assay
[3] = target: T2, mouse GLP-1 receptor (mouse, UniProt O35659 22-463); assay: cell-based or functional assay
T2 sequence (looked up): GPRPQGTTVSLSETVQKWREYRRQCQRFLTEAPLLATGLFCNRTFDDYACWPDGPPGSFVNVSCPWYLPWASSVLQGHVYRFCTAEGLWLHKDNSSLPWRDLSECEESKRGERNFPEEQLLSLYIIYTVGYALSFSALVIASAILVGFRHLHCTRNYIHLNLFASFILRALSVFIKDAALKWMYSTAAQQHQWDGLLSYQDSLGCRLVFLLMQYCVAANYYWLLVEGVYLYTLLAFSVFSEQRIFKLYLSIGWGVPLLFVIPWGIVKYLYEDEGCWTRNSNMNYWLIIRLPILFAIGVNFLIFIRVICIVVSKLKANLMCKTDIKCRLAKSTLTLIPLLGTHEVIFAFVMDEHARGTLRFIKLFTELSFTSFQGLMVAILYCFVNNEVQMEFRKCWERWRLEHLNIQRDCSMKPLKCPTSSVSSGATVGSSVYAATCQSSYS

[4] = target: T3, human GLP-1 receptor (human), P43220; assay: cell-based or functional assay
T3 chain: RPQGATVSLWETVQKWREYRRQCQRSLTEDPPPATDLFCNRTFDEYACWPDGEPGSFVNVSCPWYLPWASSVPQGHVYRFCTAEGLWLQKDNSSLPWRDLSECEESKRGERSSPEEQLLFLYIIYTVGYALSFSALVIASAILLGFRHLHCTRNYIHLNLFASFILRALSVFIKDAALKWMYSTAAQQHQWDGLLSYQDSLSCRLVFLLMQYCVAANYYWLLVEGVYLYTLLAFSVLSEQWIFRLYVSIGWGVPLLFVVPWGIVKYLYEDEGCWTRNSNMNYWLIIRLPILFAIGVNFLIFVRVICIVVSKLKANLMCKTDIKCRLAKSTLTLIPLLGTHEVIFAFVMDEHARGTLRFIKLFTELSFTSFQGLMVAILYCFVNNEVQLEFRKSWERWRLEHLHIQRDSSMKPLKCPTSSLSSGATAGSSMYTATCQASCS

[5] = target: T4, mouse GLP-1 receptor (mouse), O35659; assay: cell-based or functional assay
T4 chain: T2 sequence (looked up)

[6] = target: T3, human GLP-1 receptor (human), P43220; assay: 125I-GLP-1 displacement, membranes of CHOK1 cells expressing human GLP-1 receptor
[7] = target: T1, human GLP-1 receptor; assay: cell-based or functional assay; remark: listed apart in the source
[8] = target: T2, mouse GLP-1 receptor; assay: cell-based or functional assay; remark: listed apart in the source
[9] = target: T1, human GLP-1 receptor; assay: 125I-GLP-1 displacement, membranes of CHOK1 cells expressing human GLP-1 receptor
Description: Membrane Preparation. […] Cells were sedimented at 1500 rpm for 10 minutes. The resulting pellets were homogenized in 15 mls of ice cold sucrose buffer (25 mM Tris-HCl, 0.32 M Sucrose, 0.25 g/L, sodium azide, pH 7.4) with a motorized, glass fitted, Teflon homogenizer. The homogenate was centrifuged at 48,000×g at 4° C. for 10 minutes, resuspended in 25 ml assay buffer (50 mM Tris-HCl, 5 mM MgCl₂, 10 mg/ml protease-free BSA, 0.1 mg/ml STI, and 0.1 mg/ml Pefabloc, pH 7.4) with a Tissue-Tearor (Biospec Products), then centrifuged again at 48,000×g for 10 minutes. The pellets were homogenized for a third time in 15 ml assay buffer using the Tissue-Tearor and again centrifuged at 48,000×g for 10 minutes. The resulting pellet was resuspended in assay buffer at a wet weight concentration of 4 mg/ml.
Ligand Binding Assay. Binding assays were performed in 96-well U-bottom plates. […] The reaction was terminated by rapid filtration through Unfilter-96 GF/C glass fiber filter plates (FilterMate 196 Packard Harvester, PerkinElmer, Shelton, Conn.) pre-soaked in 0.5% polyethylenimine, followed by three washes with 300 μl of cold 50 mM Tris-HCl, pH 7.4. Bound radioactivity was determined using a TopCount microplate scintillation and luminescence counter (Packard Instrument Company, PerkinElmer, Shelton, Conn.). […]

HGEGT FTSDV SSYLE [Aib]QAAK EFIAW LVKGR-AMIDE (SEQ ID NO: 14) (peptide)
IC50 [1]: 2.5 nM
EC50 human [2]: 0.016 nM
EC50 mouse [3]: 0.15 nM

HGEGTFTSDVSSYLEGQAAKEFIAWLVKGRGCSG (modifications not checked) [cgGLP-10 (SEQ ID NO: 10 + 20k PEG dimer)]
EC50 human [4]: 0.6 nM
EC50 mouse [5]: 4 nM
IC50 [6]: 100 nM

B1: GLP1(7-37) cyclo[Lys16-Glu20] (SEQ ID NO: 159) (peptide)
peptide: HGEGTFTSDVSSYLEKQAAEEFIAWLVKGRG-NH2
modifications: lactam 16-20; N-terminus assumed
SMILES: CC[C@H](C)[C@H](NC(=O)[C@H](Cc1ccccc1)NC(=O)[C@H](CCC(=O)O)NC(=O)[C@@H]1CCC(=O)NCCCC[C@H](NC(=O)[C@H](CCC(=O)O)NC(=O)[C@H](CC(C)C)NC(=O)[C@H](Cc2ccc(O)cc2)NC(=O)[C@H](CO)NC(=O)[C@H](CO)NC(=O)[C@@H](NC(=O)[C@H](CC(=O)O)NC(=O)[C@H](CO)NC(=O)[C@@H](NC(=O)[C@H](Cc2ccccc2)NC(=O)[C@@H](NC(=O)CNC(=O)[C@H](CCC(=O)O)NC(=O)CNC(=O)[C@@H](N)Cc2c[nH]cn2)[C@@H](C)O)[C@@H](C)O)C(C)C)C(=O)N[C@@H](CCC(N)=O)C(=O)N[C@@H](C)C(=O)N[C@@H](C)C(=O)N1)C(=O)N[C@@H](C)C(=O)N[C@@H](Cc1c[nH]c2ccccc12)C(=O)N[C@@H](CC(C)C)C(=O)N[C@H](C(=O)N[C@@H](CCCCN)C(=O)NCC(=O)N[C@@H](CCCNC(=N)N)C(=O)NCC(N)=O)C(C)C
EC50 human [7]: 0.016 nM
EC50 mouse [8]: 0.1 nM

B2: cycloE22-O26 (SEQ ID NO: 69) (peptide)
peptide: HGEGTFTSDVSSYLEEQAAXEFIAWLVKGRG
modifications: ornithine at position 26 (GLP-1 numbering; residue 20 of the entry); side-chain cyclic lactam between Glu22 and Orn26; C-terminal amide
notes: Not pegylated
EC50 human [7]: 0.051 nM
IC50 [9]: 3.7 nM

From US20100048468A1 (Amgen, published 2010)
